According to patent publication EP4578875A1 (Ying Mai de Medical Technology (Guangdong) Co., Ltd., dated 2025):

Molecular target: T1, recombinant human CD3 Epsilon protein (KACTUS) (human, UniProt P07766 23-126)
T1 construct: Bought protein
Assay: ELISA, plate coated with 1 ug/ml recombinant human CD3 epsilon

T1 sequence (P07766 23-126): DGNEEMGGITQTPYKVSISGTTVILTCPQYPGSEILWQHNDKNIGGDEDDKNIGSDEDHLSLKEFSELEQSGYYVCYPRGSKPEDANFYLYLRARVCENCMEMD

B1: anti-Her2/anti-CD3 bispecific antibody comprising the anti-CD3 antibody mutant (mutation site VH-Y61C) (bispecific antibody)
VH: EVQLVESGGGLVQPGGSLRLSCAASGFTFSTYAMNWVRQAPGKGLEWVGRIRSKYNNYATCYADSVKDRFTISRDDSKNSLYLQMNSLKTEDTAVYYCARHGNFGNSYVSWFAYWGQGTLVTVSS
VL: QTVVTQEPSLTVSPGGTVTLTCRSSTGAVTTSNYANWVQQKPGQAPRGLIGGTNKRAPGVPARFSGSLLGDKAALTLLGAQPEDEAEYFCALWYSNLWVFGGGTKLTVL
scFv: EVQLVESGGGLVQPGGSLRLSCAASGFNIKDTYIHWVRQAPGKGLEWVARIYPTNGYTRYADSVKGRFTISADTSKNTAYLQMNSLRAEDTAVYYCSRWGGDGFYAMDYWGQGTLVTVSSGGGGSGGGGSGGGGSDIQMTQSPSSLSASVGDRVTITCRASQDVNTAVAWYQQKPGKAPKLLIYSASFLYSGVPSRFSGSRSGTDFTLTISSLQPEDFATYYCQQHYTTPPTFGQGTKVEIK
notes: also called CD3-Her2 Mutation; CD3-HER2 Mutation
binding result: binds
